# Experimental data reported in PMC11408855, “The structure of the SufS–SufE complex reveals interactions driving protected persulfide transfer in iron-sulfur cluster biogenesis” (The Journal of Biological Chemistry, 2024).
# T1: EcSufS, C-terminal his-tagged (wild type) (Escherichia coli, UniProt P77444 1-406, PLP (pyridoxal 5'-phosphate) cofactor)
# T1 construct: EcSufS, cysteine desulfurase SufS of Escherichia coli, UniProt P77444; the gene was cloned; also called WT EcSufS; cysteine desulfurase SufS; source: E. coli BL21(DE3)Δsuf, pET44, autoinduction, purified (Ni2+ HisTrap HP); not shown: His tag, C-terminal, kept
# T1 sequence: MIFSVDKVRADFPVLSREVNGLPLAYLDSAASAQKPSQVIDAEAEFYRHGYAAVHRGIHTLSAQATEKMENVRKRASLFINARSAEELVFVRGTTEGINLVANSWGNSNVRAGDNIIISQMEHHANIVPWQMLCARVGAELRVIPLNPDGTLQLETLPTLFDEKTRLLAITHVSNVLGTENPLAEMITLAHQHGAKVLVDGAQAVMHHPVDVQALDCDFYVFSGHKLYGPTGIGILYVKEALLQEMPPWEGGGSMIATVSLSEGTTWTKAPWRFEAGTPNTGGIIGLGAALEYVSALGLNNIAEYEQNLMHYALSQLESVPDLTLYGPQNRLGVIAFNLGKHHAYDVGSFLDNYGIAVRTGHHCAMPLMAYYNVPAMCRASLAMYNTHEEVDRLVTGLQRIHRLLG
# T2: S349A EcSufS, C-terminal his-tagged (Escherichia coli, UniProt P77444 1-406, S349A, PLP (pyridoxal 5'-phosphate) cofactor)
# T2 construct: EcSufS of Escherichia coli, UniProt P77444, with S349A; also called S349A SufS; source: E. coli BL21(DE3)Δsuf, pET44, autoinduction, purified (Ni2+ HisTrap HP); not shown: His tag, C-terminal, kept
# T2 sequence: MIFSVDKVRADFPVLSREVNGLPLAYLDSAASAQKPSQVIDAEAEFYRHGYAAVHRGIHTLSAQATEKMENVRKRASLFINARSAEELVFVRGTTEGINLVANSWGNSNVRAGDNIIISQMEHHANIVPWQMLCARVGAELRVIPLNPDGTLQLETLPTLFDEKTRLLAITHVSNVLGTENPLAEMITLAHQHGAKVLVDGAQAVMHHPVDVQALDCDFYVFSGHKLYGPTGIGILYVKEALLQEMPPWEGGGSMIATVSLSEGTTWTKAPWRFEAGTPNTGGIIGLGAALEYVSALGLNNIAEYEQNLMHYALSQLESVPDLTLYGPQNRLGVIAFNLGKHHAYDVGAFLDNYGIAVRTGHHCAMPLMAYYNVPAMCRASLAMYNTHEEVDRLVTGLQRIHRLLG
# T3: F350A EcSufS, C-terminal his-tagged (Escherichia coli, UniProt P77444 1-406, F350A, PLP (pyridoxal 5'-phosphate) cofactor)
# T3 construct: EcSufS of Escherichia coli, UniProt P77444, with F350A; also called F350A SufS; source: E. coli BL21(DE3)Δsuf, pET44, autoinduction, purified (Ni2+ HisTrap HP); not shown: His tag, C-terminal, kept
# T3 sequence: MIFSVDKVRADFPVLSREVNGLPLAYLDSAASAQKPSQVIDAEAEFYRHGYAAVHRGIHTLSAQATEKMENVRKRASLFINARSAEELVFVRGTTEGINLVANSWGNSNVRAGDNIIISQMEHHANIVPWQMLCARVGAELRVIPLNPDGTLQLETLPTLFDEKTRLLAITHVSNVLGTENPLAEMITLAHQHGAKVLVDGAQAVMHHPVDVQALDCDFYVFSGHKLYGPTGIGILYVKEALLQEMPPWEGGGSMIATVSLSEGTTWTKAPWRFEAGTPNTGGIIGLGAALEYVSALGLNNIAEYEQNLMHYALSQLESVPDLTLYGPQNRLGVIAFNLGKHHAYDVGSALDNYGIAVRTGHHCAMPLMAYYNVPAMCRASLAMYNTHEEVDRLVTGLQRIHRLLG
# T4: H343A EcSufS, C-terminal his-tagged (Escherichia coli, UniProt P77444 1-406, H343A, PLP (pyridoxal 5'-phosphate) cofactor)
# T4 construct: EcSufS of Escherichia coli, UniProt P77444, with H343A; also called H343A SufS; source: E. coli BL21(DE3)Δsuf, pET44, autoinduction, purified (Ni2+ HisTrap HP); not shown: His tag, C-terminal, kept
# T4 sequence: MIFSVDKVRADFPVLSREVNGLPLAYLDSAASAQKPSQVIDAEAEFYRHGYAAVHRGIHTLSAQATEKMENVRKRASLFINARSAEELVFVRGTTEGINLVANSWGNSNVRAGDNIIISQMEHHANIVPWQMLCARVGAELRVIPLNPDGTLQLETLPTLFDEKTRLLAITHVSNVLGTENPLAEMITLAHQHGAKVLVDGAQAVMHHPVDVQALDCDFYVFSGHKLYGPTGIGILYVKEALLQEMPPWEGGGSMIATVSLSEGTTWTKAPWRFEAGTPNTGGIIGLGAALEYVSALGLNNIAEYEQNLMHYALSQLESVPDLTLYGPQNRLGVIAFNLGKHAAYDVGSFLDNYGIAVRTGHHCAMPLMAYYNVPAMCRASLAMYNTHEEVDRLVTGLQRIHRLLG
# Tests used:
# Conditions in all cases: both partners purified
# [1] = target: T1, EcSufS, C-terminal his-tagged (wild …); test: fluorescence polarisation; 100 nM BODIPY-FL-labeled EcSufE titrated with EcSufS; 50 mM Mops pH 8.0, 150 mM NaCl, 0.1 mg/ml bovine serum albumin, 25 °C, 30 min; presence of 500 μM cysteine; apparent KD
# [2] = target: T2, S349A EcSufS, C-terminal his-tagged; test: fluorescence polarisation; 100 nM BODIPY-FL-labeled EcSufE titrated with EcSufS; 50 mM Mops pH 8.0, 150 mM NaCl, 0.1 mg/ml bovine serum albumin, 25 °C, 30 min; absence of cysteine; apparent KD
# [3] = target: T3, F350A EcSufS, C-terminal his-tagged; test: as above
# [4] = target: T4, H343A EcSufS, C-terminal his-tagged; test: as above
binder,measurement,setting,value
"BODIPY-FL-labeled C51A/E107C EcSufE (natural protein, Escherichia coli, BODIPY-FL maleimide label (labeling efficiency 60 to 80%), EcSufE, transpersulfurase SufE of Escherichia coli, UniProt P76194, with C51A and E107C; also called ""WT"" EcSufE (double mutant background); C51A/E107C EcSufE control) MALLPDKEKLLRNFLRCANWEEKYLYIIELGQRLPELRDEDRSPQNSIQGAQSQVWIVMRQNAQGIIELQGDSDAAIVKGLIAVVFILYDQMTPQDIVNFDVRPWFCKMALTQHLTPSRSQGLEAMIRAIRAKAAALS",Kd,[1],600 nM
same,Kd,[2],2200 nM
same,Kd,[3],> 40000 nM
same,Kd,[4],> 20000 nM
